In the supplement of paper PMC9112550, “Optimization of the antimicrobial peptide Bac7 by deep mutational scanning” (BMC Biology, 2022):

System: Escherichia coli TOP10
Test: shrunken log2 fold change of peptide-encoding DNA abundance (4.5 h post-induction vs induction); higher = less antimicrobial activity (less host growth inhibition)
Settings: time post-induction: 4.5 h; library: site-saturation at positions 5, 18, 19, 20
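Further: peptides expressed intracellularly from a pBAD plasmid library in pooled LB shake-flask culture, induced with 0.3% L-arabinose, DNA abundance read by NGS, three biological replicates, DESeq2 with apeglm shrinkage.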

Sequence | shrunken log2 fold change
RRIRRRPPRLPRPRPRPKHRPRP | 0.376
RRIRYRPPRLPRPRPRPHHIPRP | -0.356
RRIRMRPPRLPRPRPRPHLCPRP | -0.117
RRIRPRPPRLPRPRPRPYIGPRP | -0.184
RRIRQRPPRLPRPRPRPTCMPRP | -0.163
RRIRPRPPRLPRPRPRPQSEPRP | -0.381
RRIRARPPRLPRPRPRPTDFPRP | -0.000766
RRIRDRPPRLPRPRPRPMRLPRP | 0.674
RRIRRRPPRLPRPRPRPCIGPRP | -0.328
RRIRNRPPRLPRPRPRPLFVPRP | -0.495
RRIRYRPPRLPRPRPRPGIMPRP | 0.0185
RRIRMRPPRLPRPRPRPGWFPRP | 1.16
RRIRCRPPRLPRPRPRPVQAPRP | 0.224
RRIRRRPPRLPRPRPRPVSGPRP | 0.366
RRIRWRPPRLPRPRPRPGWPPRP | 0.644
RRIRIRPPRLPRPRPRPQEDPRP | -0.0165
RRIRYRPPRLPRPRPRPLMEPRP | -0.318
RRIRWRPPRLPRPRPRPWHEPRP | 0.356
RRIRLRPPRLPRPRPRPASIPRP | 0.0291
RRIRFRPPRLPRPRPRPTKKPRP | -0.0226
RRIRSRPPRLPRPRPRPQYPPRP | -0.157
RRIRERPPRLPRPRPRPTPTPRP | 0.174
RRIRDRPPRLPRPRPRPMFRPRP | -0.114
RRIRRRPPRLPRPRPRPWQNPRP | -0.111
RRIRQRPPRLPRPRPRPTSGPRP | -0.0104

Sequence | shrunken log2 fold change
RRIRQRPPRLPRPRPRPQLQPRP | 0.112
RRIRGRPPRLPRPRPRPFGNPRP | 0.0288
RRIRCRPPRLPRPRPRPDTWPRP | -0.234
RRIRHRPPRLPRPRPRPGGSPRP | -0.0606
RRIRSRPPRLPRPRPRPYWSPRP | -0.414
RRIRPRPPRLPRPRPRPTCAPRP | 0.268
RRIRMRPPRLPRPRPRPFPAPRP | 0.426
RRIRDRPPRLPRPRPRPFISPRP | -0.0503
RRIRRRPPRLPRPRPRPVISPRP | 0.104
RRIRTRPPRLPRPRPRPTNHPRP | -0.622
RRIRERPPRLPRPRPRPCMAPRP | -0.336
RRIRYRPPRLPRPRPRPWWEPRP | -0.0644
RRIRKRPPRLPRPRPRPDETPRP | 3.04
RRIRSRPPRLPRPRPRPRGGPRP | 0.84
RRIRKRPPRLPRPRPRPSMNPRP | -0.00473
RRIRRRPPRLPRPRPRPNPCPRP | 0.0776
RRIRTRPPRLPRPRPRPVGEPRP | -0.0292
RRIRVRPPRLPRPRPRPYNGPRP | -0.514
RRIRIRPPRLPRPRPRPFPYPRP | -0.288
RRIRSRPPRLPRPRPRPHRFPRP | -0.301
RRIRHRPPRLPRPRPRPAYDPRP | -0.265
RRIRRRPPRLPRPRPRPIERPRP | 0.0771
RRIRDRPPRLPRPRPRPVMTPRP | 0.374
RRIRIRPPRLPRPRPRPIFGPRP | -0.164
RRIRGRPPRLPRPRPRPFQAPRP | 0.112

Sequence | shrunken log2 fold change
RRIRPRPPRLPRPRPRPWWTPRP | -0.311
RRIRMRPPRLPRPRPRPYVGPRP | 0.0299
RRIRWRPPRLPRPRPRPSIEPRP | 0.0114
RRIRGRPPRLPRPRPRPHASPRP | 0.585
RRIRTRPPRLPRPRPRPEVTPRP | -0.00738
RRIRQRPPRLPRPRPRPAWVPRP | 0.0382
RRIRGRPPRLPRPRPRPQKEPRP | 0.0631
RRIRTRPPRLPRPRPRPPRYPRP | 0.152
RRIRTRPPRLPRPRPRPTCKPRP | -0.047
RRIRKRPPRLPRPRPRPVEKPRP | -0.0124
RRIRYRPPRLPRPRPRPYRMPRP | -0.725
RRIRVRPPRLPRPRPRPRDAPRP | 0.422
RRIRNRPPRLPRPRPRPMIGPRP | -0.536
RRIRNRPPRLPRPRPRPPDWPRP | 0.641
RRIRDRPPRLPRPRPRPIFHPRP | -0.158
RRIRVRPPRLPRPRPRPVDCPRP | 0.014
RRIRSRPPRLPRPRPRPHWYPRP | -0.648
RRIRCRPPRLPRPRPRPKAFPRP | -0.0921
RRIRDRPPRLPRPRPRPWHIPRP | -0.058
RRIRIRPPRLPRPRPRPEYTPRP | 0.0624
RRIRMRPPRLPRPRPRPYYSPRP | -0.0674
RRIRKRPPRLPRPRPRPVSRPRP | 0.652
RRIRVRPPRLPRPRPRPCMAPRP | -0.276
RRIRVRPPRLPRPRPRPQTFPRP | -0.122
RRIRPRPPRLPRPRPRPIIPPRP | -0.339

Sequence | shrunken log2 fold change
RRIRMRPPRLPRPRPRPYPGPRP | 0.0814
RRIRYRPPRLPRPRPRPPGIPRP | 0.0348
RRIRMRPPRLPRPRPRPSLMPRP | 0.428
RRIRIRPPRLPRPRPRPPMYPRP | -0.849
RRIRWRPPRLPRPRPRPAGIPRP | 0.186
RRIRVRPPRLPRPRPRPYFAPRP | -0.246
RRIRWRPPRLPRPRPRPMFPPRP | 0.0483
RRIRHRPPRLPRPRPRPESFPRP | -0.0018
RRIRWRPPRLPRPRPRPACGPRP | 0.508
RRIRNRPPRLPRPRPRPIYNPRP | -0.642
RRIRNRPPRLPRPRPRPLLLPRP | -0.25
RRIRKRPPRLPRPRPRPTAPPRP | 1.05
RRIRCRPPRLPRPRPRPATAPRP | 0.41
RRIRQRPPRLPRPRPRPDMMPRP | 0.142
RRIRHRPPRLPRPRPRPNYEPRP | -0.586
RRIRERPPRLPRPRPRPNAFPRP | -0.568
RRIRARPPRLPRPRPRPCFNPRP | 0.0639
RRIRQRPPRLPRPRPRPWTCPRP | 0.0112
RRIRVRPPRLPRPRPRPHKKPRP | -0.169
RRIRIRPPRLPRPRPRPYVRPRP | -0.199
RRIRQRPPRLPRPRPRPHFSPRP | -0.508
RRIRRRPPRLPRPRPRPRLRPRP | 0.848
RRIRTRPPRLPRPRPRPMFGPRP | 0.115
RRIRCRPPRLPRPRPRPEVMPRP | -0.0567
RRIRWRPPRLPRPRPRPHKYPRP | -0.652

Sequence | shrunken log2 fold change
RRIRHRPPRLPRPRPRPVGQPRP | 0.0139
RRIRERPPRLPRPRPRPHWRPRP | 0.198
RRIRERPPRLPRPRPRPGSAPRP | 0.151
RRIRLRPPRLPRPRPRPTFVPRP | -0.162
RRIRERPPRLPRPRPRPALAPRP | 0.432
RRIRERPPRLPRPRPRPTHAPRP | 0.332
RRIRIRPPRLPRPRPRPSTNPRP | -0.573
RRIRKRPPRLPRPRPRPCMDPRP | -0.122
RRIRNRPPRLPRPRPRPIVSPRP | -0.00673
RRIRCRPPRLPRPRPRPDDNPRP | 0.423
RRIRSRPPRLPRPRPRPRGYPRP | 0.13
RRIRERPPRLPRPRPRPWRAPRP | 0.0397
RRIRTRPPRLPRPRPRPYVGPRP | -0.689
RRIRYRPPRLPRPRPRPLNGPRP | -0.159
RRIRQRPPRLPRPRPRPHWRPRP | -0.374
RRIRVRPPRLPRPRPRPDMRPRP | -0.437
RRIRYRPPRLPRPRPRPQRSPRP | -0.129
RRIRQRPPRLPRPRPRPTTIPRP | -0.116
RRIRARPPRLPRPRPRPAQAPRP | 0.939
RRIRYRPPRLPRPRPRPSVEPRP | -0.481
RRIRARPPRLPRPRPRPESTPRP | 1.05
RRIRNRPPRLPRPRPRPEPVPRP | -0.0258
RRIRDRPPRLPRPRPRPVGNPRP | 0.114
RRIRPRPPRLPRPRPRPFPSPRP | 0.0138
RRIRSRPPRLPRPRPRPNHAPRP | -0.278
